Experiments:
[1] = biological target: GLP-1 receptor E127A (human) (UniProt P43220); assay: radioligand binding
[2] = biological target: GLP-1 receptor E128A (human) (UniProt P43220); assay: radioligand binding
[3] = biological target: GLP-1 receptor V36A (human) (UniProt P43220); assay: radioligand binding
[4] = biological target: GLP-1 receptor L32A (human) (UniProt P43220); assay: radioligand binding
[5] = biological target: GLP-1 receptor E127Q (human) (UniProt P43220); assay: radioligand binding
[6] = biological target: GLP-1 receptor T35A (human) (UniProt P43220); assay: radioligand binding
[7] = biological target: Wild-type human GLP-1 receptor, full length (human) (UniProt P43220); assay: radioligand binding
[8] = biological target: GLP-1 receptor E68A (human) (UniProt P43220); assay: radioligand binding
[9] = biological target: GLP-1 receptor P90A (human) (UniProt P43220); assay: radioligand binding
[10] = biological target: GLP-1 receptor R121A (human) (UniProt P43220); assay: radioligand binding
[11] = biological target: GLP-1 receptor L123A (human) (UniProt P43220); assay: radioligand binding
[12] = biological target: GLP-1 receptor E128Q (human) (UniProt P43220); assay: radioligand binding
[13] = biological target: GLP-1 receptor E127A (human) (UniProt P43220)
[14] = biological target: GLP-1 receptor E128A (human) (UniProt P43220)
[15] = biological target: GLP-1 receptor V36A (human) (UniProt P43220)
[16] = biological target: GLP-1 receptor L32A (human) (UniProt P43220)
[17] = biological target: GLP-1 receptor E127Q (human) (UniProt P43220)
[18] = biological target: GLP-1 receptor T35A (human) (UniProt P43220)
[19] = biological target: Wild-type human GLP-1 receptor, full length (human) (UniProt P43220)
[20] = biological target: GLP-1 receptor E68A (human) (UniProt P43220)
[21] = biological target: GLP-1 receptor P90A (human) (UniProt P43220)
[22] = biological target: GLP-1 receptor R121A (human) (UniProt P43220)
[23] = biological target: GLP-1 receptor L123A (human) (UniProt P43220)
[24] = biological target: GLP-1 receptor E128Q (human) (UniProt P43220)

Sequence of GLP-1 receptor V36A (human) (P43220 24-463 V36A): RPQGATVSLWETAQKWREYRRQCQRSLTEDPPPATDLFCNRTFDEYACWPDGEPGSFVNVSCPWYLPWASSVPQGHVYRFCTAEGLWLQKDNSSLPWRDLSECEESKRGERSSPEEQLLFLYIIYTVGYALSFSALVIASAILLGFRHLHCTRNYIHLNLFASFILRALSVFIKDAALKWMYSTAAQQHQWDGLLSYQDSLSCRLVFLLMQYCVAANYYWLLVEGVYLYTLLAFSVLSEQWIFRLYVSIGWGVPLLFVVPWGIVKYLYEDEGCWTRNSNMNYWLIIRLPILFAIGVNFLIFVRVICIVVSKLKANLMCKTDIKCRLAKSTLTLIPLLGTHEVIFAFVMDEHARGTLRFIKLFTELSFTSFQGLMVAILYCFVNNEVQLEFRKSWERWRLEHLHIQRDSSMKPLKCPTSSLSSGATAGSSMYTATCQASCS
Sequence of Wild-type human GLP-1 receptor, full length (human) (P43220 24-463): as the sequence (P43220 24-463 V36A) above, with A13V counted along it
Sequence of GLP-1 receptor E68A (human) (P43220 24-463 E68A): as the sequence (P43220 24-463 V36A) above, with A13V, E45A counted along it
Sequence of GLP-1 receptor E128Q (human) (P43220 24-463 E128Q): as the sequence (P43220 24-463 V36A) above, with A13V, E105Q counted along it
Sequence of GLP-1 receptor E127Q (human) (P43220 24-463 E127Q): as the sequence (P43220 24-463 V36A) above, with A13V, E104Q counted along it
Sequence of GLP-1 receptor L123A (human) (P43220 24-463 L123A): as the sequence (P43220 24-463 V36A) above, with A13V, L100A counted along it
Sequence of GLP-1 receptor L32A (human) (P43220 24-463 L32A): as the sequence (P43220 24-463 V36A) above, with L9A, A13V counted along it
Sequence of GLP-1 receptor T35A (human) (P43220 24-463 T35A): as the sequence (P43220 24-463 V36A) above, with T12A, A13V counted along it
Sequence of GLP-1 receptor E127A (human) (P43220 24-463 E127A): as the sequence (P43220 24-463 V36A) above, with A13V, E104A counted along it
Sequence of GLP-1 receptor P90A (human) (P43220 24-463 P90A): as the sequence (P43220 24-463 V36A) above, with A13V, P67A counted along it
Sequence of GLP-1 receptor E128A (human) (P43220 24-463 E128A): as the sequence (P43220 24-463 V36A) above, with A13V, E105A counted along it
Sequence of GLP-1 receptor R121A (human) (P43220 24-463 R121A): as the sequence (P43220 24-463 V36A) above, with A13V, R98A counted along it

For “Exendin-4 (from UniProt P26349 48-87) (peptide)”, the IC50 [1] was 5200 pM, the IC50 [2] was 1800 pM and the IC50 [3] was 980 pM. The IC50 [4] was 5400 pM, the IC50 [5] was 820 pM and the IC50 [6] was 440 pM. For the same substance, the IC50 [7] was 760 pM, the IC50 [8] was 480 pM and the IC50 [9] was 1600 pM. The IC50 [10] was 1200 pM, the IC50 [11] was 330 pM and the IC50 [12] was 450 pM. It also gave an EC50 of cAMP production, transiently transfected HEK293 cells [13] of 11 pM, an EC50 of cAMP production, transiently transfected HEK293 cells [14] of 25 pM and an EC50 of cAMP production, transiently transfected HEK293 cells [15] of 36 pM. For the same substance, the EC50 of cAMP production, transiently transfected HEK293 cells [16] was 52 pM, the EC50 of cAMP production, transiently transfected HEK293 cells [17] was 6.8 pM and the EC50 of cAMP production, transiently transfected HEK293 cells [18] was 23 pM. The EC50 of cAMP production, transiently transfected HEK293 cells [19] was 5.5 pM, the EC50 of cAMP production, transiently transfected HEK293 cells [20] was 9.5 pM and the EC50 of cAMP production, transiently transfected HEK293 cells [21] was 30 pM. For the same substance, the EC50 of cAMP production, transiently transfected HEK293 cells [22] was 44 pM, the EC50 of cAMP production, transiently transfected HEK293 cells [23] was 9.5 pM and the EC50 of cAMP production, transiently transfected HEK293 cells [24] was 8 pM.
